{"source": "patent US20170145104A1", "key": {"[1]": {"biological_target": "human GITR, membrane bound (on activated human T cells and on 3A9-hGITR cells) (human) (UniProt Q9Y5U5)", "sequence (Q9Y5U5 26-241 limits assumed, form in doubt)": "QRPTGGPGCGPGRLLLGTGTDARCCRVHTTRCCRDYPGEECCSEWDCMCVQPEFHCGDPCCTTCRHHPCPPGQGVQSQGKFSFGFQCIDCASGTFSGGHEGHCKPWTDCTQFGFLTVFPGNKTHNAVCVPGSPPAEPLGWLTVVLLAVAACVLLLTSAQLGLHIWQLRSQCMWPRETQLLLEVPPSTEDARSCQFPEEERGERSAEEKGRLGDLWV", "assay": "FACS competition on PHA-activated human T cells, GITR-L pre-bound, competitor 28F3-hIgG1 at 0.5 ug/ml; inhibition partial"}, "[2]": {"biological_target": "human GITR, membrane bound (on activated human T cells and on 3A9-hGITR cells) (human) (UniProt Q9Y5U5)", "assay": "FACS, PHA-activated human CD4+ and CD8+ T cells, PE anti-HA tag"}, "[3]": {"biological_target": "human GITR, membrane bound (on activated human T cells and on 3A9-hGITR cells) (human) (UniProt Q9Y5U5)", "assay": "FACS competition on activated human CD4+ T cells: GITRL pre-bound and titrated, then 28F3.hIgG1 (m11) at a fixed 0.5 ug/mL, detected with anti-human IgG Fc-PE; partial block; unit from the axis"}, "[4]": {"biological_target": "human GITR, membrane bound (on activated human T cells and on 3A9-hGITR cells) (human) (UniProt Q9Y5U5)", "assay": "FACS: recombinant hGITR-L trimer titrated on PHA-activated human T cells, CD4 gate, PE anti-HA tag; direct binding curve; the sheet's table heads the row 'IC50', the text calls it EC50; unit from the axis"}, "[5]": {"biological_target": "human GITR, membrane bound (on activated human T cells and on 3A9-hGITR cells) (human) (UniProt Q9Y5U5)", "assay": "FACS: recombinant hGITR-L trimer titrated on PHA-activated human T cells, CD8 gate, PE anti-HA tag; direct binding curve; the sheet's table heads the row 'IC50', the text calls it EC50; unit from the axis"}, "[6]": {"biological_target": "human GITR, membrane bound (on activated human T cells and on 3A9-hGITR cells) (human) (UniProt Q9Y5U5)", "assay": "FACS on activated T cells, GMFI (PE); EC50 table under the plot; unit from the axis; fit of a flat control curve, see non_binding"}}, "note": "pEC50: −log10 of the molar value.", "data": [{"substance": "recombinant human GITR ligand trimer (R&D Systems 6987-GL)", "values": [{"measurement": "IC50", "setting": "[1]", "result": 2.4, "unit": "ng/mL"}, {"measurement": "EC50", "setting": "[2]", "result": 0.016, "unit": "µg/mL"}, {"measurement": "IC50", "setting": "[3]", "result": 2.44, "unit": "ng/mL"}, {"measurement": "EC50", "setting": "[4]", "result": 0.016, "unit": "µg/mL"}, {"measurement": "EC50", "setting": "[5]", "result": 0.0163, "unit": "µg/mL"}]}, {"substance": "unrelated hIgG1 (antibody)", "values": [{"measurement": "pEC50", "setting": "[6]", "result": 6.88}]}, {"substance": "unrelated hIgG2 (antibody)", "values": [{"measurement": "pEC50", "setting": "[6]", "result": 8.17}]}]}
